{
  "source": "paper PMC5570165",
  "test_system": "p19 N15K,G16R",
  "assay": "BLI / MSD-SET",
  "details": "2'-OMe at select positions, BLI: citrate-phosphate buffer, 100 mM NaCl, 0.1% BSA, 0.002% Tween-20, 37 C (pH of the siRNA assay not stated), MSD-SET: PBS, 100 pM siRNA, 24 h …",
  "data": [
    {"sequence": "AACGCUGGGCGUUAAUCAATT / UUGAUUAACGCCCAGCGUUTT [Seq 7 siRNA]", "values": [
      {"measurement": "binding signal (fold higher affinity than p19 (up to))", "result": 160}
    ]}
  ]
}
